According to patent publication US6177557:

Columns and labels:
[1] = molecular target: thrombin (alpha) (human) (UniProt P00734+P00734); assay: filter
[2] = molecular target: basic fibroblast growth factor (bFGF) (UniProt P09038); assay: filter
[3] = bulk pool, text also says after 12 rounds, apparently unselected

Sequence of basic fibroblast growth factor (bFGF) (P09038 135-288): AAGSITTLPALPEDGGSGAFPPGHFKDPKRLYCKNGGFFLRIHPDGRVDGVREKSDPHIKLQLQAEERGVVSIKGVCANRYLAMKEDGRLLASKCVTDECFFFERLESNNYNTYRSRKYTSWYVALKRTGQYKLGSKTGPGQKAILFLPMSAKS

## AGATGCCTGTCGAGCATGCTNGTAGCTAAACTGCTTTGTCGACGGG [30N DNA pool after SELEX]
[1]; pool after 12 rounds
  Kd: 8 nM

## AGATGCCTGTCGAGCATGCTNGTAGCTAAACTGCTTTGTCGACGGG [60N DNA pool after SELEX]
[1]; pool after 12 rounds
  Kd: 8 nM

## AGATGCCTGTCGAGCATGCTNGTAGCTAAACTGCTTTGTCGACGGG [bulk 30N DNA]
[1]; [3]
  Kd: 8000 nM

## AGATGCCTGTCGAGCATGCTNGTAGCTAAACTGCTTTGTCGACGGG [bulk 60N DNA]
[1]; [3]
  Kd: 5000 nM

## GGGAGACAAGAAUAACGCUCAANNNNNNNNNNNNNNNNNNNNNNNNNNNNNNUUCGACAGGAGGCUCACAACAGGC [2'-NH2 starting random RNA A]
[2]; 2'-NH2 pyrimidines, unselected pool, +/-11
  Kd: 65 nM

## GGGAGAUGCCUGUCGAGCAUGCUGNNNNNNNNNNNNNNNNNNNNNNNNNNNNNNGUAGCUAAACAGCUUUGUCGACGGG [random RNA B (unmodified)]
[2]; unselected pool, PBS, 37 C
  Kd: 560 nM

## GGGAGCUCAGAAUAAACGCUCAANNNNNNNNNNNNNNNNNNNNNNNNNNNNNNUUCGACAUGAGGCCCGGAUCCGGC [random RNA A (unmodified)]
[2]; unselected pool, PBS, 37 C
  Kd: 300 nM

## GGGAGGACGATGCGGGGGGCTATGCGATACAGTCGCGNTANGCTAGGCGCAGACGAGCGGGA [m26]
[2]; PBS
  Kd: 1.6 nM

## GGGAGGACGATGCGGNCAGACGACGACGGGGA [DNA SELEX pool Experiment 3 round 10]
[2]; round 10 pool
  Kd: 2.5 nM

## GGGAGGACGATGCGGNCAGACGACGACGGGGA [DNA SELEX pool Experiment 3 round 11]
[2]; round 11 pool
  Kd: 4 nM

## GGGAGGACGATGCGGNCAGACGACGACGGGGA [DNA random pool 30N7.1PS (round 0)]
[2]; round 0 pool
  Kd: 300 nM

## GGGAGGACGAUGCGGNNNNNNNNNNNNNNNNNNNNNNNNNNNNNNNNNNNNNNNNNNNNNNNNNNCAGACGACUCGCCCGA [2'-NH2 starting random RNA B]
[2]; 2'-NH2 pyrimidines, unselected pool, +/-140
  Kd: 240 nM
